{"source": "patent US20220195052A1", "biological_target": "human αvβ1 integrin on cells (human) (UniProt P06756)", "sequence (P06756 31-1048 limits assumed, chain 1 of 2)": "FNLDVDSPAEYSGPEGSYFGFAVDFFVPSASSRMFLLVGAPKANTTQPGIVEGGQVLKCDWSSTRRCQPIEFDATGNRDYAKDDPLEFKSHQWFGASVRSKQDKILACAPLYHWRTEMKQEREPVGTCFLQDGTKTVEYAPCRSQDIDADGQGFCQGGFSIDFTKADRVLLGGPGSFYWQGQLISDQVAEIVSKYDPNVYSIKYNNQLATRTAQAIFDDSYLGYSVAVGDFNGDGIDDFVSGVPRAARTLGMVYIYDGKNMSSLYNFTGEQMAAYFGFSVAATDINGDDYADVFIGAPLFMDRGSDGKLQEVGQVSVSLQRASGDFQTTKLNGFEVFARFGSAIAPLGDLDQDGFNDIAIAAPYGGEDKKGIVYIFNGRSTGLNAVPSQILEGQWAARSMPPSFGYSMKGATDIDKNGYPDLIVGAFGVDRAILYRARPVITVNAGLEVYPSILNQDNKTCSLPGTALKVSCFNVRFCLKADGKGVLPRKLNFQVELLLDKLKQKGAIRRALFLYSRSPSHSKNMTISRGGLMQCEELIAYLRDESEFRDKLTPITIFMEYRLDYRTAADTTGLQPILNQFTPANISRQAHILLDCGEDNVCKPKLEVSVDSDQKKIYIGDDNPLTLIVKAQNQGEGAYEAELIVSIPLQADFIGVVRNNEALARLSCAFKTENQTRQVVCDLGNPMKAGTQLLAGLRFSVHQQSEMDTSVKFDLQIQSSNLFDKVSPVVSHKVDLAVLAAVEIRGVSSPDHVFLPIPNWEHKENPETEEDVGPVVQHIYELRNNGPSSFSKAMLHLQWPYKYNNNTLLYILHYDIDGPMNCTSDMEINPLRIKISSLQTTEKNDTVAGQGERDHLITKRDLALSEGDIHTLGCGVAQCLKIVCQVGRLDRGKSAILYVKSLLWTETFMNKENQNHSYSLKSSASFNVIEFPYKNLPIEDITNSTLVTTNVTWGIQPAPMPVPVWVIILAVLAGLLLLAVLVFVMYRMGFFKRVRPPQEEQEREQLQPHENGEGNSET", "sequence (chain, as listed by the source limits assumed, chain 2 of 2)": "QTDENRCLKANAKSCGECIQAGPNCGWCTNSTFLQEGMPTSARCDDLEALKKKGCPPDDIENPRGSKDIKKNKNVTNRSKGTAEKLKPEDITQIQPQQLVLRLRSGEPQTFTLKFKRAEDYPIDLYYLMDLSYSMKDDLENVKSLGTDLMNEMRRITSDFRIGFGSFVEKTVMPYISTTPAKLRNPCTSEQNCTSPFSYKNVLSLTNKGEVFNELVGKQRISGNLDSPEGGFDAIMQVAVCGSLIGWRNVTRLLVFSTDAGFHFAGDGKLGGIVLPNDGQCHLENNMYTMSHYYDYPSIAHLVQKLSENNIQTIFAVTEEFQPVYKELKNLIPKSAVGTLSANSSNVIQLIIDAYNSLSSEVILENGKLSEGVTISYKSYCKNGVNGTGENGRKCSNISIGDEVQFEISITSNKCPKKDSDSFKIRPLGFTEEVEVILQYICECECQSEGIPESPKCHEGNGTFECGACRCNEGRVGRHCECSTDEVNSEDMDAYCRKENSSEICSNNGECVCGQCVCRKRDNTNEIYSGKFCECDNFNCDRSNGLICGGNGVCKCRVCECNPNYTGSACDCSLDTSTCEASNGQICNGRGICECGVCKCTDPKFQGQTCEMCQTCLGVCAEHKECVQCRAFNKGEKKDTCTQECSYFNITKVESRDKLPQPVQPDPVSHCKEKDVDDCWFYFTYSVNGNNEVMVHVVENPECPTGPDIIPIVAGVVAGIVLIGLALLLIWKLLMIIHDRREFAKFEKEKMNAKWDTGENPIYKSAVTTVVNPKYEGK", "assay": "inhibition of adhesion of BCECF-labelled αvβ1-transfected cells to plate-coated LAP"}
{"substance": "L230 (pan-αv commercial antibody)", "values": [{"measurement": "IC50", "result": 1, "unit": "nM"}]}
